Reference: patent US20240060126

How the values were obtained:
[1] = target: MspA-((Del-L74/G75/D118/L119)D56F/E59R/L88N/D90N/D91N/Q126R/D134R/E139K)8
[2] = target: MspA-((Del-L74/G75/D118/L119)G1A/D56N/E59F/L88N/D90N/D91N/Q126R/D134R/E139K)8

B1: T4 Dda-E94C/C109A/C136A/K199L/A360C (protein)
chain: MTFDDLTEGQKNAFNIVMKAIKEKKHHVTINGPAGTGKTTLTKFIIEALISTGETGIILAAPTHAAKKILSKLSGKEASTIHSILKINPVTYECNVLFEQKEVPDLAKARVLICDEVSMYDRKLFKILLSTIPPWATIIGIGDNKQIRPVDPGENTAYISPFFTHKDFYQCELTEVKRSNAPIIDVATDVRNGKWIYDLVVDGHGVRGFTGDTALRDFMVNYFSIVKSLDDLFENRVMAFTNKSVDKLNSIIRKKIFETDKDFIVGEIIVMQEPLFKTYKIDGKPVSEIIFNNGQLVRIIEAEYTSTFVKARGVPGEYLIRHWDLTVETYGDDEYYREKIKIISSDEELYKFNLFLGKTCETYKNWNKGGKAPWSDFWDAKSQFSKVKALPASTFHKAQGMSVDRAFIYTPCIHYADVELAQQLLYVGVTRGRYDVFYV
[1]
  slips forward per kilobase: less than 5 slips forward per kilobase
[2]
  % bases missed in construct X: the lowest % bases missed in construct X
  slips forward per kilobase: less than 5 slips forward per kilobase
